Experimental data taken from patent US20230322900A1.

How the values were obtained:
[1] = target: pBC0114 BDD FVIII base construct (pcDNA4-FVIII_4-…-Myc-SPATG-His) (human) (UniProt P00451); experiment: cell-based or functional assay
pBC0149 (human) = pBC0149 (human) (UniProt P00451); experiment: cell-based or functional assay
[2] = target: FVIII-His-Myc (non-XTEN containing FVIII-His-Myc protein) (human); experiment: sandwich ELISA, antibody capture, anti-Myc detection, normalised to anti-His capture
[3] = target: FVIII-XTEN-His-Myc, XTEN insertion A1, 18, AE144 (human); experiment: as above
[4] = target: FVIII-XTEN-His-Myc, XTEN insertion A1, 18, AG144 (human); experiment: as above
[5] = target: FVIII-XTEN-His-Myc, XTEN insertion A1, 26, AE144 (human); experiment: as above
[6] = target: FVIII-XTEN-His-Myc, XTEN insertion A1, 26, AG144 (human); experiment: as above
[7] = target: FVIII-XTEN-His-Myc, XTEN insertion A1, 40, AE144 (human); experiment: as above
[8] = target: FVIII-XTEN-His-Myc, XTEN insertion A1, 40, AG144 (human); experiment: as above
[9] = target: FVIII-XTEN-His-Myc, XTEN insertion A2, 399, AE144 (human); experiment: as above
[10] = target: FVIII-XTEN-His-Myc, XTEN insertion A2, 403, AE144 (human); experiment: as above
[11] = target: FVIII-XTEN-His-Myc, XTEN insertion A2, 403, AG144 (human); experiment: as above
[12] = target: FVIII-XTEN-His-Myc, XTEN insertion A3, 1656, AG144 (human); experiment: as above

Row | Substance | Ratio to Control [1] | Ratio to Control (pBC0149 (human)) | Relative Remaining Activity (pBC0149 (human)) | Concentration on aFVIII/Myc ÷ concentration on aHis/Myc [2] | Concentration on aFVIII/Myc ÷ concentration on aHis/Myc [3] | Concentration on aFVIII/Myc ÷ concentration on aHis/Myc [4] | Concentration on aFVIII/Myc ÷ concentration on aHis/Myc [5] | Concentration on aFVIII/Myc ÷ concentration on aHis/Myc [6] | Concentration on aFVIII/Myc ÷ concentration on aHis/Myc [7] | Concentration on aFVIII/Myc ÷ concentration on aHis/Myc [8] | Concentration on aFVIII/Myc ÷ concentration on aHis/Myc [9] | Concentration on aFVIII/Myc ÷ concentration on aHis/Myc [10] | Concentration on aFVIII/Myc ÷ concentration on aHis/Myc [11] | Concentration on aFVIII/Myc ÷ concentration on aHis/Myc [12]
1 | GMA8008 FVIII inhibitor antibody | 1 | 0.8 | 0.1 | – | – | – | – | – | – | – | – | – | – | –
2 | ESH8 anti-FVIII antibody (American Diagnostica Inc.) | – | – | – | 104% | 130% | 131% | 87% | 147% | 147% | 153% | 140% | 141% | 129% | 158%
3 | GMA-8021 anti-FVIII monoclonal antibody (Green Mountain Antibodies) | 1 | 1.3 | 0.2 | 92% | 129% | 150% | 155% | 157% | 137% | 164% | 100% | 103% | 104% | 153%
